Experimental findings from patent publication US20250152729A1 (CANCER RESEARCH TECHNOLOGY, published 2025) are described below.

In general, IC50 refers to the concentration that inhibits the measured activity by half. A high value points to a need for much substance.

Experiment [1] deals with T1, human SEMA4A expressed on cells (UniProt ID Q9H3S1, isoform 1) (human, UniProt Q9H3S1 33-761).
T1 sequence: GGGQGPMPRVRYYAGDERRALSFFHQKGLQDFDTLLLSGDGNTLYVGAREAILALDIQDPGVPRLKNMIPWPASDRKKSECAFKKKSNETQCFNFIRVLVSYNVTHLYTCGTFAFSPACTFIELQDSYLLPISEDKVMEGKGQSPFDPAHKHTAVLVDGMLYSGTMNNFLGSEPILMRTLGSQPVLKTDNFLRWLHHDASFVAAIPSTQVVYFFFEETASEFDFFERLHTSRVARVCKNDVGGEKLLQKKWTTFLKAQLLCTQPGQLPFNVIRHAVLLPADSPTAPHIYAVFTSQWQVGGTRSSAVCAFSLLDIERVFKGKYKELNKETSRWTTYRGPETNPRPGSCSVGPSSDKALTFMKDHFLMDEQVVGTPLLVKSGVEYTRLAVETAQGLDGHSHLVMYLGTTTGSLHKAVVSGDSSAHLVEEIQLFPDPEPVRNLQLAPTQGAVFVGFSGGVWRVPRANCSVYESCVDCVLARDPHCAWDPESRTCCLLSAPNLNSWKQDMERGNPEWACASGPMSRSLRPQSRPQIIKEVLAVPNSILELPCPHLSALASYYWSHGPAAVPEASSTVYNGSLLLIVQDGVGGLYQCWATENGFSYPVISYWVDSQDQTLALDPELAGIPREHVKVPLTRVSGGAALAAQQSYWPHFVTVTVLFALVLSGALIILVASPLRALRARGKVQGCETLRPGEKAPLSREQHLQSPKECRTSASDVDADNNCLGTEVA
Kind of experiment: cell-based or functional assay.

The target of experiment [2] is T1, human SEMA4A expressed on cells …. Put plainly: Mirrorball epitope competition on MM.1S cells; competitor: fixed 5E3 mouse IgG1. An excerpt: The 5E3 epitope competition assay assessed the ability of the un-purified IgGs expressed in a human IgG1 backbone to compete for binding to the mouse 5E3 epitope on human SEMA4A endogenously expressed by MM.1S cells, a human multiple myeloma cell line. The assay utilised a secondary-Alexa Fluor 647 conjugate, 5E3 expressed in a mouse IgG1 (A) backbone (BioLegend®, San Diego, CA, 148402) and a Mirrorball fluorescence cytometer (SPT Labtech, UK). Binding of 5E3 mouse IgG1 to MM.1S cells was measured via an anti-mouse secondary labelled with Alexa Fluor 647 (Invitrogen, A21235) in the presence of a single concentration of each un-purified human IgG1. […] 10 μl undiluted un-purified IgG, contained in Expi293 expression medium (Gibco, UK, A1435101), were added to the assay plate (Greiner Bio-one, UK, 781906), followed by 10 ul of 1.2 nM 5E3 mouse IgG1 and 20 μl MM.1S cell suspension containing 1,500 cells that was spiked with 4 nM anti-mouse Alexa Fluor 647. The assay plate was incubated for 4 hours at room temperature, in the dark prior to reading on a Mirrorball fluorescence cytometer (SPT Labtech, UK) using a 640 nm laser for excitation and measuring emission in the FL-4 channel (650-690 nm). Data was analysed as Count x median mean intensity (x FLU). All dilutions were performed in Hanks' balanced salt solution (Sigma, UK; cat: H8264) containing 0.1% (w/V) BSA (Sigma, UK; cat: A9576). Maximum binding signal was determined by analysing the binding of 5E3 mouse IgG1 to MM.1S cells in the absence of competitor un-purified human IgG1. Background binding signal was determined by analysing the fluorescence generated in the absence of 5E3 mouse IgG1. Data were analysed and graphed using GraphPad Prism software (GraphPad Software, Inc, La Jolla, CA).
Hits from the primary screening were re-formatted into the human Alya IgG1 vector and re-expressed and purified as described in section 4.1. 5E3 epitope competition assay methods are described in section 3.2 and were used to test purified human Alya IgG1s. The purified human Alya IgG1s were diluted to a 4× stock and then serially diluted using 4-fold dilutions to generate a 10 point concentration response curve.

Experiment [3] deals with T2, mouse SEMA4A expressed on expi293 cells (UniProt ID Q62178) (mouse, UniProt Q62178 33-760).
T2 construct: Transient transfection in expi293 cells
T2 sequence: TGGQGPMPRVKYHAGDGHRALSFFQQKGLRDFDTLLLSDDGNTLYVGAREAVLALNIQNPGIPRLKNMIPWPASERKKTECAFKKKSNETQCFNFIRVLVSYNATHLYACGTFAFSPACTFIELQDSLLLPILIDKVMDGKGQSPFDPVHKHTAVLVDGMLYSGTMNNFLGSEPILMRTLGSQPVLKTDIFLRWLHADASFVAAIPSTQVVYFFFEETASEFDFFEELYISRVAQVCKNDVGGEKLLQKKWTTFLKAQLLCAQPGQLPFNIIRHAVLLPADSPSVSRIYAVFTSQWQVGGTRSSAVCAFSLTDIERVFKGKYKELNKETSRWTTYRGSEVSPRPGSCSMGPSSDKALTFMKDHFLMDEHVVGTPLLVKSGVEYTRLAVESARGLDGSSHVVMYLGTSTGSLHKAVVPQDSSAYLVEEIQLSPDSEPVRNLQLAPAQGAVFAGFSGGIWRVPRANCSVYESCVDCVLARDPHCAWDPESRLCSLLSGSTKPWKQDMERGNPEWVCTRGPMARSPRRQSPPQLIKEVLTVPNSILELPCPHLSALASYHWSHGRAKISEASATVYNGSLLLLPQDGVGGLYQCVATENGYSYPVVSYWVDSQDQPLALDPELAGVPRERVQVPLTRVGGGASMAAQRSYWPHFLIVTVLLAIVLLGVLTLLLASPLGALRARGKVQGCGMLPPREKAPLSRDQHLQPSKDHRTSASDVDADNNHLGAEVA
Put plainly: Mirrorball direct binding, dilution series on expi293 cells transiently transfected with mouse SEMA4A, anti-human Alexa Fluor 647.

B1: 5Hg5-5Lg2 human Alya IgG1 (antibody, V domains shown)
VH: EVQLVQSGAEVKKPGESLRISCKGSGYSFTDYWMHWVRQMPGKGLEWMGAIDTSDSYTSYNQKFKGQVTISADKSISTAYLQWSSLKASDTAMYYCARDYGNFYYYAMDYWGQGTLVTVSS
VL: QAVVTQEPSLTVSPGGTVTLTCRSSTGAVTTSNYANWFQQKPGQAPRTLIYGTNNRAPWTPARFSGSLLGGKAALTLLGAQPEDEAEYYCALWYSNHWVFGGGTKLTVL
notes: Humanised 5E3; human IgG1 Alya constant (239iCys, S442C, EU), lambda light chain; purified, unconjugated; also called 5HE5/5Lg2
Regarding B1, in experiment [1], the “IC50 (pM), Fab-ZAP cell kill, NCI-H929” value was determined as 167 pM and the “Max % Cell Kill, Fab-ZAP, NCI-H929” value came to 51%. The molecule further registered an IC50 in experiment [2] of 14.9 nM. Also, the binding result in experiment [3] is reported as “binds”.

B2: 5Hg2-5Lg3 human Alya IgG1 (antibody, V domains shown)
VH: QVQLVQSGAEVKKPGASVKVSCKASGYTFTDYWMHWVRQAPGQRLEWMGAIDTSDSYTSYNQKFKGRVTITRDTSASTAYMELSSLRSEDTAVYYCARDYGNFYYYAMDYWGQGTLVTVSS
VL: QTVVTQEPSFSVSPGGTVTLTCRSSTGAVTTSNYANWYQQTPGQAPRTLIYGTNNRAPGVPDRFSGSILGNKAALTITGAQADDESDYYCALWYSNHWVFGGGTKLTVL
notes: Humanised 5E3; human IgG1 Alya constant (239iCys, S442C, EU), lambda light chain; purified, unconjugated
With B2, in experiment [1], the “IC50 (pM), Fab-ZAP cell kill, NCI-H929” value was determined as 113 pM and the “Max % Cell Kill, Fab-ZAP, NCI-H929” value came to 58%. This molecule showed an IC50 in experiment [2] of 11.3 nM. Further, the binding result in experiment [3] is on record as “binds”.

B3: 5Hg2-5Lg6 human Alya IgG1 (antibody, V domains shown)
VH: QVQLVQSGAEVKKPGASVKVSCKASGYTFTDYWMHWVRQAPGQRLEWMGAIDTSDSYTSYNQKFKGRVTITRDTSASTAYMELSSLRSEDTAVYYCARDYGNFYYYAMDYWGQGTLVTVSS
VL: SYELTQPSSVSVSPGQTARITCRSSTGAVTTSNYANWFQQKPGQAPVLVIYGTNNRAPGIPERFSGSSSGTTVTLTISGAQVEDEADYYCALWYSNHWVFGGGTKLTVL
notes: as for B2
In the case of B3, in experiment [1], the “IC50 (pM), Fab-ZAP cell kill, NCI-H929” value stood at 42 pM and the “Max % Cell Kill, Fab-ZAP, NCI-H929” value is 22%. The same molecule returned an IC50 in experiment [2] of 71.8 nM. For the same molecule, the binding result in experiment [3] was “binds”.

B4: 5Hg4-5Lg5 human Alya IgG1 (antibody, V domains shown)
VH: QVQLVQSGSELKKPGASVKVSCKASGYTFTDYWMHWVRQAPGQGLEWMGAIDTSDSYTSYNQKFKGRFVFSLDTSVSTAYLQICSLKAEDTAVYYCARDYGNFYYYAMDYWGQGTLVTVSS
VL: QSVVTQPPSVSGAPGQRVTISCRSSTGAVTTSNYANWYQQLPGTAPKLLIYGTNNRAPGVPDRFSGSKSGASASLAITGLQAEDEADYYCALWYSNHWVFGGGTKLTVL
notes: as for B2
With B4, in experiment [1], the “IC50 (pM), Fab-ZAP cell kill, NCI-H929” value came out at 119 pM and the “Max % Cell Kill, Fab-ZAP, NCI-H929” value stood at 50%. In experiment [2], this molecule displayed an IC50 of 20.4 nM. Further, in experiment [3], the binding result was “binds”.

B5: 5Hg4-5Lg1 human Alya IgG1 (antibody, V domains shown)
VH: QVQLVQSGSELKKPGASVKVSCKASGYTFTDYWMHWVRQAPGQGLEWMGAIDTSDSYTSYNQKFKGRFVFSLDTSVSTAYLQICSLKAEDTAVYYCARDYGNFYYYAMDYWGQGTLVTVSS
VL: QAVVTQEPSLTVSPGGTVTLTCRSSTGAVTTSNYANWFQQKPGQAPRTLIYGTNNRAPWTPARFSGSLLGGKAALTLSGAQPEDEAEYYCALWYSNHWVFGGGTKLTVL
notes: as for B2
In the case of B5, in experiment [1], the “IC50 (pM), Fab-ZAP cell kill, NCI-H929” value is 122 pM and the “Max % Cell Kill, Fab-ZAP, NCI-H929” value was 56%. Also, the IC50 in experiment [2] came to 9.7 nM. In addition, the binding result in experiment [3] is recorded as “binds”.

B6: 5Hg4-5Lg2 human Alya IgG1 (antibody, V domains shown)
VH: QVQLVQSGSELKKPGASVKVSCKASGYTFTDYWMHWVRQAPGQGLEWMGAIDTSDSYTSYNQKFKGRFVFSLDTSVSTAYLQICSLKAEDTAVYYCARDYGNFYYYAMDYWGQGTLVTVSS
VL: QAVVTQEPSLTVSPGGTVTLTCRSSTGAVTTSNYANWFQQKPGQAPRTLIYGTNNRAPWTPARFSGSLLGGKAALTLLGAQPEDEAEYYCALWYSNHWVFGGGTKLTVL
notes: as for B2
For B6, in experiment [1], the “IC50 (pM), Fab-ZAP cell kill, NCI-H929” value came out at 151 pM and the “Max % Cell Kill, Fab-ZAP, NCI-H929” value came to 58%. This molecule also returned an IC50 in experiment [2] of 8.4 nM. For the same molecule, the binding result in experiment [3] was “binds”.

B7: 5Hg4-5Lg4 human Alya IgG1 (antibody, V domains shown)
VH: QVQLVQSGSELKKPGASVKVSCKASGYTFTDYWMHWVRQAPGQGLEWMGAIDTSDSYTSYNQKFKGRFVFSLDTSVSTAYLQICSLKAEDTAVYYCARDYGNFYYYAMDYWGQGTLVTVSS
VL: QSALTQPPSVSGSPGQSVTISCRSSTGAVTTSNYANWYQQPPGTAPKLMIYGTNNRAPGVPDRFSGSKSGNTASLTISGLQAEDEADYYCALWYSNHWVFGGGTKLTVL
notes: as for B2
B7: in experiment [1], the “IC50 (pM), Fab-ZAP cell kill, NCI-H929” value is 119 pM and the “Max % Cell Kill, Fab-ZAP, NCI-H929” value is 33%. In experiment [2], the IC50 worked out at 45.5 nM. In addition, the binding result in experiment [3] is given as “binds”.
